In the supplement of paper PMC10126150:
± gives the standard deviation of the averaged measurements.

System: ATP
Assay: switch fluorescence ratio, 500 uM ATP over buffer (Cy3 cluster intensity, sum of 5 cycles each) (fold (ratio)); higher = stronger signal-on switching upon ATP binding; sequences stand for … in TCGTCGGCAGCGTCAGATGTGTATAAGAGACAGTTTTTTTTTTTTTTTTTTTTTTTTT…TC
Conditions: aptamer strand: ATP DNA aptamer (quencher-CACCTGGGGGAGTATTGCGGAGGAAGG + anchor), 100 nM annealed; ATP concentration: 500 uM
Method in brief: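 Clusters with intensities outside 100-1000 RFU were excluded. The remaining Cy3-labelled switching-strand clusters on a modified Illumina MiSeq flow-cell had been annealed to 100 nM quencher-labelled ATP aptamer and imaged in selection buffer, then after 15 min with 500 uM ATP at 22 °C, for five cycles separated by NaOH stripping and re-annealing. The fluorescence ratio, averaged per switch-domain sequence, is each cluster's summed target-cycle Cy3 intensity over its summed buffer-cycle Cy3 intensity.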
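Further: ATP exposure 15 min at 22 °C before imaging.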

TTGTTAGGAT
switch fluorescence ratio: 1.07 ± 0.062

TTGTTATATT
switch fluorescence ratio: 0.983 ± 0.026

TTGTTCATAC
switch fluorescence ratio: 1.27 ± 0.37

TTGTTCGACT
switch fluorescence ratio: 1.02 ± 0.016

TTGTTCGGCC
switch fluorescence ratio: 0.992 ± 0.035

TTGTTGAAAC
switch fluorescence ratio: 1.03 ± 0.085

TTGTTGAGAG
switch fluorescence ratio: 1.02 ± 0.022

TTGTTGCCTG
switch fluorescence ratio: 0.9907 ± 0.0083

TTGTTGCGGG
switch fluorescence ratio: 0.977 ± 0.019

TTGTTGCTTA
switch fluorescence ratio: 1.05 ± 0.006

TTGTTGGGGT
switch fluorescence ratio: 1.05 ± 0.12

TTGTTGTGTG
switch fluorescence ratio: 0.973 ± 0.033

TTGTTGTTAT
switch fluorescence ratio: 0.991 ± 0.017

TTGTTTCCGA
switch fluorescence ratio: 1 ± 0.058

TTGTTTCGGT
switch fluorescence ratio: 1.02 ± 0.063

TTGTTTGATA
switch fluorescence ratio: 0.9883 ± 0.0073

TTGTTTGGAC
switch fluorescence ratio: 1.03 ± 0.013

TTGTTTGTGC
switch fluorescence ratio: 1.02 ± 0.023

TTGTTTTATC
switch fluorescence ratio: 1 ± 0.021

TTGTTTTTGG
switch fluorescence ratio: 0.987 ± 0.032

TTGTTTTTTA
switch fluorescence ratio: 1.01 ± 0.016

TTTAAAAAAC
switch fluorescence ratio: 1 ± 0.026

TTTAAAAATT
switch fluorescence ratio: 0.987 ± 0.026

TTTAAAACCA
switch fluorescence ratio: 1.004 ± 0.0039

TTTAAAACGG
switch fluorescence ratio: 1.01 ± 0.06

TTTAAAATCT
switch fluorescence ratio: 1.016 ± 0.0092

TTTAAAGACT
switch fluorescence ratio: 1.01 ± 0.056

TTTAAAGATG
switch fluorescence ratio: 0.999 ± 0.018

TTTAAAGATT
switch fluorescence ratio: 1.01 ± 0.037

TTTAAAGCGG
switch fluorescence ratio: 1.01 ± 0.026

TTTAAAGGGG
switch fluorescence ratio: 1.05 ± 0.14

TTTAAAGTGG
switch fluorescence ratio: 0.98 ± 0.015

TTTAAATAAA
switch fluorescence ratio: 1 ± 0.017

TTTAAATGCC
switch fluorescence ratio: 1.05 ± 0.05

TTTAACAACT
switch fluorescence ratio: 1.01 ± 0.017

TTTAACCGGT
switch fluorescence ratio: 1.047 ± 0.0073

TTTAACCTGC
switch fluorescence ratio: 1.06 ± 0.011

TTTAACGGGA
switch fluorescence ratio: 1.15 ± 0.17

TTTAACGTCA
switch fluorescence ratio: 1.05 ± 0.023

TTTAAGAAAT
switch fluorescence ratio: 0.986 ± 0.011

TTTAAGACGA
switch fluorescence ratio: 1.02 ± 0.014

TTTAAGGGAC
switch fluorescence ratio: 1.05 ± 0.021

TTTAAGTACG
switch fluorescence ratio: 1.21 ± 0.048

TTTAATAAAG
switch fluorescence ratio: 1.02 ± 0.041

TTTAATAATT
switch fluorescence ratio: 1.03 ± 0.032

TTTAATACGT
switch fluorescence ratio: 1.023 ± 0.0034

TTTAATCATT
switch fluorescence ratio: 1 ± 0.029

TTTAATGCGC
switch fluorescence ratio: 1.23 ± 0.37

TTTAATGGAG
switch fluorescence ratio: 1.02 ± 0.034

TTTAATGGGA
switch fluorescence ratio: 1.03 ± 0.05

TTTAATTA
switch fluorescence ratio: 1.01 ± 0.032

TTTAATTACT
switch fluorescence ratio: 1.04 ± 0.037

TTTAATTAGG
switch fluorescence ratio: 1.03 ± 0.028

TTTAATTTAT
switch fluorescence ratio: 1.09 ± 0.12

TTTAATTTTA
switch fluorescence ratio: 1 ± 0.02

TTTAATTTTT
switch fluorescence ratio: 0.988 ± 0.036

TTTACAGTTG
switch fluorescence ratio: 0.96 ± 0.014

TTTACCCGGC
switch fluorescence ratio: 1.1 ± 0.13

TTTACCGCTC
switch fluorescence ratio: 1.26 ± 0.073

TTTACGAGGT
switch fluorescence ratio: 1.01 ± 0.037

TTTACGAGTA
switch fluorescence ratio: 1.01 ± 0.012

TTTACGAGTG
switch fluorescence ratio: 1.03 ± 0.019

TTTACGCGCA
switch fluorescence ratio: 1.01 ± 0.03

TTTACGGAGG
switch fluorescence ratio: 1.03 ± 0.021

TTTACGTAGT
switch fluorescence ratio: 1.03 ± 0.019

TTTACGTGCG
switch fluorescence ratio: 1.054 ± 0.0061

TTTACGTTTT
switch fluorescence ratio: 1.03 ± 0.041

TTTACTCGCA
switch fluorescence ratio: 1.3 ± 0.12

TTTACTGAGA
switch fluorescence ratio: 1.01 ± 0.033

TTTACTTGTG
switch fluorescence ratio: 1.01 ± 0.035

TTTAGAAATA
switch fluorescence ratio: 1.05 ± 0.022

TTTAGAACTT
switch fluorescence ratio: 1.01 ± 0.077

TTTAGAAGGA
switch fluorescence ratio: 0.9796 ± 0.0067

TTTAGAGATG
switch fluorescence ratio: 1.24 ± 0.41

TTTAGATTGA
switch fluorescence ratio: 0.99606 ± 0.00096

TTTAGCACGA
switch fluorescence ratio: 1 ± 0.024

TTTAGCATAA
switch fluorescence ratio: 1.23 ± 0.13

TTTAGCGTCA
switch fluorescence ratio: 0.9891 ± 0.0056

TTTAGGACGA
switch fluorescence ratio: 0.981 ± 0.017

TTTAGGAGGT
switch fluorescence ratio: 1.04 ± 0.049

TTTAGGATCC
switch fluorescence ratio: 0.983 ± 0.022

TTTAGGCAT
switch fluorescence ratio: 0.986 ± 0.028

TTTAGGGAAA
switch fluorescence ratio: 0.961 ± 0.033

TTTAGGGACA
switch fluorescence ratio: 1.15 ± 0.1

TTTAGGGACT
switch fluorescence ratio: 1.02 ± 0.024

TTTAGGGATT
switch fluorescence ratio: 1.03 ± 0.037

TTTAGGGGGT
switch fluorescence ratio: 0.991 ± 0.023

TTTAGGTACT
switch fluorescence ratio: 1.25 ± 0.34

TTTAGGTAGT
switch fluorescence ratio: 0.975 ± 0.021

TTTAGGTCAA
switch fluorescence ratio: 0.9943 ± 0.0031

TTTAGGTGCA
switch fluorescence ratio: 1.16 ± 0.14

TTTAGGTGTG
switch fluorescence ratio: 1.02 ± 0.039

TTTAGGTTAA
switch fluorescence ratio: 0.9752 ± 0.0074

TTTAGGTTGT
switch fluorescence ratio: 0.9984 ± 0.0073

TTTAGTACGT
switch fluorescence ratio: 1.02 ± 0.057

TTTAGTATTT
switch fluorescence ratio: 1.01 ± 0.037

TTTAGTCGCA
switch fluorescence ratio: 0.998 ± 0.035

TTTAGTGAAC
switch fluorescence ratio: 1.025 ± 0.0089

TTTAGTGAAT
switch fluorescence ratio: 0.9966 ± 0.0051

TTTAGTGCCT
switch fluorescence ratio: 1.04 ± 0.012

TTTAGTGTGC
switch fluorescence ratio: 1.01 ± 0.03

TTTAGTTCCG
switch fluorescence ratio: 0.935 ± 0.025

TTTAGTTGAC
switch fluorescence ratio: 0.9956 ± 0.0092

TTTAGTTTG
switch fluorescence ratio: 1 ± 0.037

TTTAGTTTTC
switch fluorescence ratio: 0.991 ± 0.019

TTTATAACAC
switch fluorescence ratio: 1.05 ± 0.013

TTTATACCGA
switch fluorescence ratio: 1.067 ± 0.004

TTTATACCTA
switch fluorescence ratio: 1.03 ± 0.023

TTTATACCTT
switch fluorescence ratio: 1.07 ± 0.1

TTTATATAAT
switch fluorescence ratio: 0.984 ± 0.038

TTTATATGTT
switch fluorescence ratio: 1.03 ± 0.04

TTTATCAATT
switch fluorescence ratio: 0.991 ± 0.063

TTTATCAGTT
switch fluorescence ratio: 0.951 ± 0.035

TTTATCCGCC
switch fluorescence ratio: 1.77 ± 0.21

TTTATCCGCG
switch fluorescence ratio: 1.25 ± 0.25

TTTATCGAGC
switch fluorescence ratio: 1.02 ± 0.027

TTTATCGGTA
switch fluorescence ratio: 1.01 ± 0.03

TTTATCGTGG
switch fluorescence ratio: 0.9721 ± 0.002

TTTATCTGAA
switch fluorescence ratio: 0.9783 ± 0.0017

TTTATCTTGG
switch fluorescence ratio: 1.02 ± 0.038

TTTATGAAAG
switch fluorescence ratio: 0.97 ± 0.05

TTTATGAAGC
switch fluorescence ratio: 1.06 ± 0.076

TTTATGAGTG
switch fluorescence ratio: 0.997 ± 0.031

TTTATGCACC
switch fluorescence ratio: 1.07 ± 0.017

TTTATGCCGG
switch fluorescence ratio: 1.01 ± 0.029

TTTATGGGGG
switch fluorescence ratio: 0.999 ± 0.034

TTTATGTGGG
switch fluorescence ratio: 1.05 ± 0.12

TTTATTAGCA
switch fluorescence ratio: 0.968 ± 0.05

TTTATTATGT
switch fluorescence ratio: 0.994 ± 0.034

TTTATTCGGC
switch fluorescence ratio: 1.02 ± 0.065

TTTATTCGGT
switch fluorescence ratio: 1.01 ± 0.074

TTTATTCTAA
switch fluorescence ratio: 0.976 ± 0.02

TTTATTGAGC
switch fluorescence ratio: 0.989 ± 0.039

TTTATTGAGG
switch fluorescence ratio: 1.03 ± 0.011

TTTATTGGGA
switch fluorescence ratio: 1.07 ± 0.13

TTTATTGTAA
switch fluorescence ratio: 0.991 ± 0.031

TTTATTGTGC
switch fluorescence ratio: 1.03 ± 0.054

TTTATTTGCA
switch fluorescence ratio: 0.9545 ± 0.0068

TTTATTTGTA
switch fluorescence ratio: 0.99 ± 0.035

TTTATTTGTC
switch fluorescence ratio: 0.992 ± 0.053

TTTATTTTAT
switch fluorescence ratio: 1.02 ± 0.057

TTTATTTTCA
switch fluorescence ratio: 0.9924 ± 0.0046

TTTCAAAAAC
switch fluorescence ratio: 1.03 ± 0.037

TTTCAAACCC
switch fluorescence ratio: 0.995 ± 0.013

TTTCAAATTG
switch fluorescence ratio: 0.973 ± 0.028

TTTCAATGGA
switch fluorescence ratio: 0.974 ± 0.018

TTTCACTTGG
switch fluorescence ratio: 1.03 ± 0.027

TTTCAGAAAT
switch fluorescence ratio: 1.91 ± 1.6

TTTCAGAACT
switch fluorescence ratio: 1.0027 ± 0.00088

TTTCAGAGTT
switch fluorescence ratio: 0.993 ± 0.033

TTTCAGTCTA
switch fluorescence ratio: 1.03 ± 0.024

TTTCAGTTCC
switch fluorescence ratio: 1.08 ± 0.002

TTTCATACGT
switch fluorescence ratio: 1.02 ± 0.05

TTTCATAGC
switch fluorescence ratio: 1.1 ± 0.065

TTTCATATGG
switch fluorescence ratio: 0.994 ± 0.024

TTTCATCCTG
switch fluorescence ratio: 1.0331 ± 0.00038

TTTCATCTCT
switch fluorescence ratio: 1 ± 0.04

TTTCATGGGT
switch fluorescence ratio: 1 ± 0.018

TTTCATTATC
switch fluorescence ratio: 1.02 ± 0.016

TTTCATTGTA
switch fluorescence ratio: 1.01 ± 0.013

TTTCCACAT
switch fluorescence ratio: 0.9719 ± 0.0091

TTTCCAGCGT
switch fluorescence ratio: 1.03 ± 0.036

TTTCCAGGCA
switch fluorescence ratio: 1.03 ± 0.0051

TTTCCAGGG
switch fluorescence ratio: 1.17 ± 0.031

TTTCCAGGGA
switch fluorescence ratio: 1.034 ± 0.0029

TTTCCAGTAA
switch fluorescence ratio: 1.036 ± 0.0068

TTTCCCAGGA
switch fluorescence ratio: 1.13 ± 0.038

TTTCCCCTTT
switch fluorescence ratio: 1.08 ± 0.15

TTTCCCTGGT
switch fluorescence ratio: 1.12 ± 0.11

TTTCCGCGGA
switch fluorescence ratio: 0.97 ± 0.024

TTTCCGGAAT
switch fluorescence ratio: 1.661 ± 0.011

TTTCCGGTTT
switch fluorescence ratio: 1.6 ± 1.1

TTTCCGTTGG
switch fluorescence ratio: 1.12 ± 0.17

TTTCCTCCCT
switch fluorescence ratio: 1.84 ± 0.5

TTTCCTGAGG
switch fluorescence ratio: 0.991 ± 0.016

TTTCCTGGAT
switch fluorescence ratio: 1.04 ± 0.052

TTTCCTGGCG
switch fluorescence ratio: 1.024 ± 0.0089

TTTCCTTGCT
switch fluorescence ratio: 1.49 ± 0.59

TTTCGAAACG
switch fluorescence ratio: 1.12 ± 0.21

TTTCGAAATG
switch fluorescence ratio: 1.01 ± 0.027

TTTCGAATTG
switch fluorescence ratio: 0.975 ± 0.019

TTTCGAATTT
switch fluorescence ratio: 1.02 ± 0.04

TTTCGACGTT
switch fluorescence ratio: 0.99 ± 0.011

TTTCGAGGCT
switch fluorescence ratio: 0.976 ± 0.019

TTTCGATAGG
switch fluorescence ratio: 0.979 ± 0.034

TTTCGCATGA
switch fluorescence ratio: 1.223 ± 0.006

TTTCGCATTT
switch fluorescence ratio: 1.14 ± 0.013

TTTCGCCAGA
switch fluorescence ratio: 1.03 ± 0.0044

TTTCGCCCCT
switch fluorescence ratio: 1.1 ± 0.062

TTTCGCGATT
switch fluorescence ratio: 2.32 ± 1.7

TTTCGGAACC
switch fluorescence ratio: 1.2 ± 0.22

TTTCGGAAGG
switch fluorescence ratio: 0.988 ± 0.025

TTTCGGAGAG
switch fluorescence ratio: 0.989 ± 0.037

TTTCGGATCA
switch fluorescence ratio: 0.9334 ± 0.0044

TTTCGGATGG
switch fluorescence ratio: 1.03 ± 0.057

TTTCGGCATT
switch fluorescence ratio: 2.4 ± 1.9

TTTCGGGATT
switch fluorescence ratio: 1 ± 0.012

TTTCGGGCGG
switch fluorescence ratio: 0.999 ± 0.038

TTTCGGGGTA
switch fluorescence ratio: 1 ± 0.045

TTTCGGGGTT
switch fluorescence ratio: 1.04 ± 0.1
